Test results: paper PMC4981318

Assays:
[1] = molecular target: gp41 17–194 (Env 528 to 705; FPPR to TM, IL replaced by the L6 spacer) (HIV-1 (HXB2 isolate)); assay: AUC; sedimentation velocity, 20°C; 20 mM sodium phosphate, pH 7, without NaCl, DPC; 1–2 μM protein left soluble
[2] = molecular target: gp41 17–163 (construct H; MPER truncated by 9 C-terminal residues) (HIV-1 (HXB2 isolate)); assay: AUC; sedimentation velocity, 50,000 rpm, 20°C; 20 mM sodium phosphate, pH 7, 150 mM NaCl, 10 mM DPC (excess of micelles); 10–20 μM protein

Row | Substance | stoichiometry N [1] | stoichiometry N [2]
1 | gp41 17–194 (Env 528 to 705; FPPR to TM, IL replaced by the L6 spacer) (domain or fragment) | 3 | –
2 | gp41 17–163 (construct H; MPER truncated by 9 C-terminal residues) (domain or fragment) | – | 3
